According to patent publication US20160215067A1 (CASE WESTERN RESERVE UNIVERSITY, published 2016):

Key:
[1] = target: anti-CEP humanized antibody (anti-CEP huAb), full length; assay: competitive ELISA, CEP-BSA coated
[2] = target: anti-CEP humanized antibody (anti-CEP huAb), full length; assay: competitive ELISA, CEP-BSA coated, inhibitor preincubated with anti-CEP huAb
[3] = target: T1, CEP-modified human serum albumin (CEP-HSA) (human, UniProt P02768 25-609, 2-(omega-carboxyethyl)pyrrole (CEP) derivatives of primary amino groups; sites and number not stated); assay: BIAcore SPR, single-cycle kinetics; CEP-HSA immobilised as ligand, antibody as analyte [panel B, table under the sensorgram]
T1 construct: The antibodies recognise the CEP hapten on the carrier protein

[4] = target: T1, CEP-modified human serum albumin …; assay: BIAcore 3000, CEP-HSA immobilized on CM5 chip, single-cycle kinetics, bivalent fit
Protocol: (§1) The binding affinity of each antibody was measured using BIAcore technology.

[5] = target: T1, CEP-modified human serum albumin …; assay: BIAcore, CEP-HSA on chip
Protocol: as §1

[6] = target: T1, CEP-modified human serum albumin …; assay: BIAcore SPR, single-cycle kinetics; CEP-HSA immobilised as ligand, antibody as analyte [table under the sensorgram]
[7] = target: T1, CEP-modified human serum albumin …; assay: BIAcore single-cycle kinetic analysis
[8] = target: T1, CEP-modified human serum albumin …; assay: BIAcore SPR, single-cycle kinetics; CEP-HSA immobilised as ligand, antibody as analyte [panel A, table under the sensorgram]
Protocol: as §1

CHP-BSA (from UniProt P02769 25-607) was tested, and the fold lower cross-reactivity than with anti-CEP mumAb [1] was less than 10 fold and the IC50 [2] was 4690 µM.

“CEP-modified human serum albumin (CEP-HSA) (from UniProt P02768 25-609)” showed an IC50 [2] of 0.0056 µM.

CPP-HSA (from UniProt P02768 25-609) was tested, and the IC50 [2] was 10.5 µM.

B1: anti-CEP humanized antibody (anti-CEP huAb), full length (antibody, human IgG1, V domains shown)
VH: QVQLVQSGAEVKKPGASVKVSCKASGYAFTKYGMDWVRQAPGQGLEWMGRINTYTGEPTYADDFKGRVTITADTSTSTAYMELSSLRSEDTAVYYCARRRDGYPFAYWGQGTLVTVSS
VL: DIVMTQSPDSLAVSLGERATINCKASQDVSTAVAWYQQKPGQPPKLLIYSASYRFPGVPDRFSGSGSGTDFTLTISSLQAEDVAVYYCHQHYFIPYTFGGGTKLEIK
notes: Human IgG1 heavy constant region (vector pFUSE-CHIg-hG1) and human kappa constant region (pFUSE2-CLIg-hk); expressed in CHO-S cells, clone A1; also called original anti-CEP huAb; anti-CEP humAb
Molecule B1 has a koff [3] of 0.00025 s⁻¹, a kon [3] of 159000 M⁻¹ s⁻¹ and a Kd [4] of 0.00158 µM. For the same molecule, the “fold weaker affinity than anti-CEP mumAb” value [5] was roughly 10 fold.

B2: Mutant 2F1, full length anti-CEP huAb mutant (antibody, V domains shown)
VH: QVQLVQSGAEVKKPGASVKVSCKASGYALTKYGMDWVRQAPGQGLEWMGRINTYTGEPTYADDFKGRVTITADTSTSTAYMELSSLRSEDTAVYYCARRRGGYPFAYWGQGTLVTVSS
VL: DIVMTQSPDSLAVSLGERATINCKASQDVSTAVAWYQQKPGQPPKLLIYSASYRFPGVPDRFSGSGSGTDFTLTISSLQAEDVAVYYCHQHYFIPYTFGGGTKLEIK
Molecule B2 has a koff [6] of 0.000228 s⁻¹, a kon [6] of 308000 M⁻¹ s⁻¹ and a Kd [7] of 0.00074 µM. The “fold stronger affinity than original anti-CEP huAb” value [7] was roughly 2 fold.

B3: anti-CEP murine monoclonal antibody (anti-CEP mumAb), hybridoma clone 2D3.3G9-1 (antibody, mouse IgG2a, V domains shown)
VH: QIQLIQSGPELKKPGETVKISCKPSGYAFTKYGMDWVKQAPGEGLKWMGRINTYTGEPTYADDFKGRFAFSLEASASTAYLQINNLKNEDTATYFCARRRDGYPFAYWGQGTLVTVSS
VL: DIVMTQSHKFMSTSVRDRVSITCKASQDVSTAVAWYQQKPGQSPKILIYSASYRFPGVPDRFTGSGSGTDFTFTISSVQAEDLAVYYCHQHYFIPYTFGGGTKLEIK
notes: also called murine anti-CEP mAb; mouse counterpart
With B3 the Kd [4] was 0.00016 µM, the koff [8] was 0.00377 s⁻¹ and the kon [8] was 2.36e+07 M⁻¹ s⁻¹.
